{"source": "patent US20040082509", "proteins": {"B1": {"name": "MKK7 kinase (protein)", "chain": "MAASSLEQKLSRLEAKLKQENREARRRIDLNLDISPQRPRPTLQLPLANDGGSRSPSSESSPQHPTPPARPRHMLGLPSTLFTPRSMESIEIDQKLQEIMKQTGYLTIGGQRYQAEINDLENLGEMGSGTCGQVWKMRFRKTGHVIAVKQMRRSGNKEENKRILMDLDVVLKSHDCPYIVQCFGTFITNTDVFIAMELMGTCAEKLKKRMQGPIPERILGKMTVAIVKALYYLKEKHGVIHRDVKPSNILLDERGQIKLCDFGISGRLVDSKAKTRSAGCAAYMAPERIDPPDPTKPDYDIRADVWSLGISLVELATGQFPYKNCKTDFEVLTKVLQEEPPLLPGHMGFSGDFQSFVKDCLTKDHRKRPKYNKLLEHSFIKRYETLEVDVASWFKDVMAKTESPRTSGVLSQPHLPFFR"}, "B2": {"name": "recombinant nonactivated JNK1 (protein)", "chain": "MSRSKRDNNFYSVEIGDSTFTVLKRYQNLKPIGSGAQGIVCAAYDAILERNVAIKKLSRPFQNQTHAKRAYRELVLMKCVNHKNIIGLLNVFTPQKSLEEFQDVYIVMELMDANLCQVIQMELDHERMSYLLYQMLCGIKHLHSAGIIHRDLKPSNIVVKSDCTLKILDFGLARTAGTSFMMTPYVVTRYYRAPEVILGMGYKENVDLWSVGCIMGEMVCHKILFPGRDYIDQWNKVIEQLGTPCPEFMKKLQPTVRTYVENRPKYAGYSFEKLFPDVLFPADSEHNKLKASQARDLLSKMLVIDASKRISVDEALQHPYINVWYDPSEAEAPPPKIPDKQLDEREHTIEEWKELIYKEVMDLEERTKNGVIRGQPSPLGAAVINGSQHPSSSSSVNDVSSMSTDPTLASDTDSSLEAAAGPLGCCR"}, "B3": {"name": "recombinant JNK1α1 (protein)", "chain": "MSRSKRDNNFYSVEIGDSTFTVLKRYQNLKPIGSGAQGIVCAAYDAILERNVAIKKLSRPFQNQTHAKRAYRELVLMKCVNHKNIIGLLNVFTPQKSLEEFQDVYIVMELMDANLCQVIQMELDHERMSYLLYQMLCGIKHLHSAGIIHRDLKPSNIVVKSDCTLKILDFGLARTAGTSFMMTPYVVTRYYRAPEVILGMGYKENVDLWSVGCIMGEMVCHKILFPGRDYIDQWNKVIEQLGTPCPEFMKKLQPTVRTYVENRPKYAGYSFEKLFPDVLFPADSEHNKLKASQARDLLSKMLVIDASKRISVDEALQHPYINVWYDPSEAEAPPPKIPDKQLDEREHTIEEWKELIYKEVMDLEERTKNGVIRGQPSPLAQVQQ"}, "B4": {"name": "MKK4 kinase (protein)", "chain": "MAAPSPSGGGGSGGGSGSGTPGPVGSPAPGHPAVSSMQGKRKALKLNFANPPFKSTARFTLNPNPTGVQNPHIERLRTHSIESSGKLKISPEQHWDFTAEDLKDLGEIGRGAYGSVNKMVHKPSGQIMAVKRIRSTVDEKEQKQLLMDLDVVMRSSDCPYIVQFYGALFREGDCWICMELMSTSFDKFYKYVYSVLDDVIPEEILGKITLATVKALNHLKENLKIIHRDIKPSNILLDRSGNIKLCDFGISGQLVDSIAKTRDAGCRPYMAPERIDPSASRQGYDVRSDVWSLGITLYELATGRFPYPKWNSVFDQLTQVVKGDPPQLSNSEEREFSPSFINFVNLCLTKDESKRPKYKELLKHPFILMYEERAVEVACYVCKILDQMPATPSSPMYVD"}, "B5": {"name": "recombinant nonactivated JNK3 (protein)", "chain": "MSLHFLYYCSEPTLDVKIAFCQGFDKQVDVSYIAKHYNMSKSKVDNQFYSVEVGDSTFTVLKRYQNLKPIGSGAQGIVCAAYDAVLDRNVAIKKLSRPFQNQTHAKRAYRELVLMKCVNHKNIISLLNVFTPQKTLEEFQDVYLVMELMDANLCQVIQMELDHERMSYLLYQMLCGIKHLHSAGIIHRDLKPSNIVVKSDCTLKILDFGLARTAGTSFMMTPYVVTRYYRAPEVILGMGYKENVDIWSVGCIMGEMVRHKILFPGRDYIDQWNKVIEQLGTPCPEFMKKLQPTVRNYVENRPKYAGLTFPKLFPDSLFPADSEHNKLKASQARDLLSKMLVIDPAKRISVDDALQHPYINVWYDPAEVEAPPPQIYDKQLDEREHTIEEWKELIYKEVMNSEEKTKNGVVKGQPSPSGAAVNSSESLPPSSSVNDISSMSTDQTLASDTDSSLEASAGPLGCCR"}, "B6": {"name": "recombinant nonactivated JNK2 (protein)", "chain": "MSDSKCDSQFYSVQVADSTFTVLKRYQQLKPIGSGAQGIVCAAFDTVLGINVAVKKLSRPFQNQTHAKRAYRELVLLKCVNHKNIISLLNVFTPQKTLEEFQDVYLVMELMDANLCQVIHMELDHERMSYLLYQMLCGIKHLHSAGIIHRDLKPSNIVVKSDCTLKILDFGLARTACTNFMMTPYVVTRYYRAPEVILGMGYKENVDIWSVGCIMGELVKGCVIFQGTDHIDQWNKVIEQLGTPSAEFMKKLQPTVRNYVENRPKYPGIKFEELFPDWIFPSESERDKIKTSQARDLLSKMLVIDPDKRISVDEALRHPYITVWYDPAEAEAPPPQIYDAQLEEREHAIEEWKELIYKEVMDWEERSKNGVVKDQPSDAAVSSNATPSQSSSINDISSMSTEQTLASDTDSSLDASTGPLEGCR"}}, "key": {"[1]": {"biological_target": "T1, D-TAT-JNKI1 (i.e., D-TAT-JBD20)", "T1 chain": "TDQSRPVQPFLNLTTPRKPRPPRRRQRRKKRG"}, "[2]": {"biological_target": "T2, L-TAT-JNKI1 (i.e., L-TAT-JBD20)", "T2 chain": "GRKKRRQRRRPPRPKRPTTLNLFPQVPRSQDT"}, "[3]": {"biological_target": "T3, D-TAT-IB1 peptide", "T3 chain": "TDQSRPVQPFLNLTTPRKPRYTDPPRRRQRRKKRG"}, "[4]": {"biological_target": "T4, L-TAT-IB1 peptide", "T4 chain": "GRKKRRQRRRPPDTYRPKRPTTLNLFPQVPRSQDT"}, "[5]": {"biological_target": "T5, L-TAT-IB2 peptide", "T5 chain": "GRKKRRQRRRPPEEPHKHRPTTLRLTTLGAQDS"}}}
{"protein": "B1", "values": [{"measurement": "kinase activity towards its substrate, panel of 40 kinases (10 µM peptides, 10 µM ATP)", "setting": "[1]", "result": "the JNKI peptides had an affect on the JNKs and MKK4 and MKK7 kinases"}, {"measurement": "kinase activity towards its substrate, panel of 40 kinases (10 µM peptides, 10 µM ATP)", "setting": "[2]", "result": "the JNKI peptides had an affect on the JNKs and MKK4 and MKK7 kinases"}]}
{"protein": "B2", "values": [{"measurement": "GST-Jun (a.a. 1-73) phosphorylation by recombinant JNK1, fold less efficient than L-TAT-IB1 (0-250 µM dosage study)", "setting": "[3]", "result": "approximately 10-20 fold less efficiently than L-TAT-IB1"}, {"measurement": "phosphorylation of c-Jun, ATF2 and Elk1 by recombinant JNK1, solid phase kinase assay (peptide 0-25 µM)", "setting": "[4]", "result": "Nearly complete inhibition of c-Jun, ATF2 and Elk1 phosphorylation by JNKs was observed at TAT-IB peptide doses as low as 2.5 µM"}, {"measurement": "phosphorylation of c-Jun, ATF2 and Elk1 by recombinant JNK1, solid phase kinase assay (peptide 0-25 µM)", "setting": "[5]", "result": "Nearly complete inhibition of c-Jun, ATF2 and Elk1 phosphorylation by JNKs was observed at TAT-IB peptide doses as low as 2.5 µM"}]}
{"protein": "B3", "values": [{"measurement": "in vitro phosphorylation of GST-Jun and GST-Elk1 by JNK1α1, kinase assay", "setting": "[1]", "result": "their ability to prevent the phosphorylation in vitro of known JNK targets c-Jun and Elk1 using JNK1α1"}, {"measurement": "in vitro phosphorylation of GST-Jun and GST-Elk1 by JNK1α1, kinase assay", "setting": "[2]", "result": "their ability to prevent the phosphorylation in vitro of known JNK targets c-Jun and Elk1 using JNK1α1"}]}
{"protein": "B4", "values": [{"measurement": "kinase activity towards its substrate, panel of 40 kinases (10 µM peptides, 10 µM ATP)", "setting": "[1]", "result": "the JNKI peptides had an affect on the JNKs and MKK4 and MKK7 kinases"}, {"measurement": "kinase activity towards its substrate, panel of 40 kinases (10 µM peptides, 10 µM ATP)", "setting": "[2]", "result": "the JNKI peptides had an affect on the JNKs and MKK4 and MKK7 kinases"}]}
{"protein": "B5", "values": [{"measurement": "GST-Jun (a.a. 1-73) phosphorylation by recombinant JNK3, fold less efficient than L-TAT-IB1 (0-250 µM dosage study)", "setting": "[3]", "result": "approximately 10-20 fold less efficiently than L-TAT-IB1"}, {"measurement": "phosphorylation of Elk1 by recombinant JNK3, solid phase kinase assay", "setting": "[4]", "result": "a marked exception was the absence of TAT-IB inhibition of JNK3 phosphorylation of Elk1"}, {"measurement": "phosphorylation of c-Jun and ATF2 by recombinant JNK3, solid phase kinase assay (peptide 0-25 µM)", "setting": "[4]", "result": "Nearly complete inhibition of c-Jun, ATF2 and Elk1 phosphorylation by JNKs was observed at TAT-IB peptide doses as low as 2.5 µM"}, {"measurement": "phosphorylation of Elk1 by recombinant JNK3, solid phase kinase assay", "setting": "[5]", "result": "a marked exception was the absence of TAT-IB inhibition of JNK3 phosphorylation of Elk1"}, {"measurement": "phosphorylation of c-Jun and ATF2 by recombinant JNK3, solid phase kinase assay (peptide 0-25 µM)", "setting": "[5]", "result": "Nearly complete inhibition of c-Jun, ATF2 and Elk1 phosphorylation by JNKs was observed at TAT-IB peptide doses as low as 2.5 µM"}]}
{"protein": "B6", "values": [{"measurement": "GST-Jun (a.a. 1-73) phosphorylation by recombinant JNK2, fold less efficient than L-TAT-IB1 (0-250 µM dosage study)", "setting": "[3]", "result": "approximately 10-20 fold less efficiently than L-TAT-IB1"}, {"measurement": "phosphorylation of c-Jun, ATF2 and Elk1 by recombinant JNK2, solid phase kinase assay (peptide 0-25 µM)", "setting": "[4]", "result": "Nearly complete inhibition of c-Jun, ATF2 and Elk1 phosphorylation by JNKs was observed at TAT-IB peptide doses as low as 2.5 µM"}, {"measurement": "phosphorylation of c-Jun, ATF2 and Elk1 by recombinant JNK2, solid phase kinase assay (peptide 0-25 µM)", "setting": "[5]", "result": "Nearly complete inhibition of c-Jun, ATF2 and Elk1 phosphorylation by JNKs was observed at TAT-IB peptide doses as low as 2.5 µM"}]}
